Data from patent publication US20210380679A1 (INHIBRX BIOSCIENCES, published 2021).

T1: human DLL3 (Delta-like ligand 3) (human, UniProt Q9NYJ7 27-618)
T1 construct: endogenous on SHP-77 cells; also called cell-surface DLL3
T1 sequence: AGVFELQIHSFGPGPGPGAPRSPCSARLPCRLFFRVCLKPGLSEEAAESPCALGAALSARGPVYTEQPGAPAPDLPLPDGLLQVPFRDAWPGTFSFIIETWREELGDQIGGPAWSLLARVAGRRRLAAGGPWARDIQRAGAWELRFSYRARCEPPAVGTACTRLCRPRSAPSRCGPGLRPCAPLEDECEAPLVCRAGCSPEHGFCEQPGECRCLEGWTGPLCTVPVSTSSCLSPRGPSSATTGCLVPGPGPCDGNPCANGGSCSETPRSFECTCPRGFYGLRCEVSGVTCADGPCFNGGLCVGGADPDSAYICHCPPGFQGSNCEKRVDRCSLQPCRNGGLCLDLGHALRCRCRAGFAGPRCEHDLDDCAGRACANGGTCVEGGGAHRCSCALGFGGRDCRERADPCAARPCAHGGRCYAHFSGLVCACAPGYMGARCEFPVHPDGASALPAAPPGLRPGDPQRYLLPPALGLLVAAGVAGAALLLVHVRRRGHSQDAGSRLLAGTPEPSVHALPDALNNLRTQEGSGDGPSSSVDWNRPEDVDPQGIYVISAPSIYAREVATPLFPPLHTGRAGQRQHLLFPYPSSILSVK

B1: cx5801 (bispecific antibody)
chain 1: DKTHTCPPCPAPGGPSVFLFPPKPKDTLMISRTPEVTCVVVDVSHEDPEVKFNWYVDGVEVHNAKTKPREEQYNSTYRVVSVLTVLHQDWLNGKEYKCKVSNKALPAPIEKTISKAKGQPREPQVYTLPPCRDELTKNQVSLWCLVKGFYPSDIAVEWESNGQPENNYKTTPPVLDSDGSFFLYSKLTVDKSRWQQGNVFSCSVMHEALHNHYTQKSLSLSPTGGGGGSGGGGGSGGGGGSEVQLVESGGGLVQPGGSLRLSCAASGFTFNTYAMNWVRQAPGKCLEWVARIRSKYNNYATYYADSVKGRFTISRDDAKNTLYLQMSSLRAEDTAVYYCVRHGNFGNSYVSWFAYWGQGTLVTVKPEVQLVESGGGEVQPGGSLRLSCGPSEIITSDKSMGWVRQAPGKQRNLVAGISNVGSTNYAQSVKGRFTISRDNAKNTVYLQMSSLRAEDTAVYYCYARDFENEYWGQGTLVTVKP
chain 2: DKTHTCPPCPAPGGPSVFLFPPKPKDTLMISRTPEVTCVVVDVSHEDPEVKFNWYVDGVEVHNAKTKPREEQYNSTYRVVSVLTVLHQDWLNGKEYKCKVSNKALPAPIEKTISKAKGQPREPQVCTLPPSRDELTKNQVSLSCAVKGFYPSDIAVEWESNGQPENNYKTTPPVLDSDGSFFLVSKLTVDKSRWQQGNVFSCSVMHEALHNRYTQKSLSLSPTGGGGGSGGGGGSGGGGGSQAVVTQEPSLTVSPGGTVTLTCGSSTGAVTTSNYANWVQQKPGQAFRGLIGGTNKRAPGVPARFSGSLLGGKAALTISGAQPEDEADYYCALWYSNHWVFGCGTKLEIKEVQLLESGGGEVQPGGSLRLSCAASGFSFSINAMGWYRQAPGKRREFVAAIESGRNTVYAESVKGRFTISRDNAKNTVYLQMSSLRAEDTAVYYCGLLKGNRVVSPSVAYWGQGTLVTVKP
notes: monovalent for DLL3; junction linkers not placed
B2: 6A1 (Fc fusion)
VHH: QVQLVQSGGGLVQAGGSLRLSCAASGFSLDDYTIGWFRQAPGKEREGVSCISSSGGSTVHADSVKGRFTISRDNAKNTVWLQMNSLKPEDTAVYYCATWCGVATMTEDLPFDYWGQGTLVTVKP
notes: tested as VHH-human Fc; Fc not specified

Experiments:
[1] = target: T1, human DLL3 (Delta-like ligand 3); assay: flow cytometry, construct titrated on SHP-77 cells (DLL3 positive), fluorophore-conjugated anti-human IgG Fc secondary
Experimental: (§1) Binding of exemplary multispecific polypeptide constructs of the disclosure containing an antigen-binding domain directed against DLL3 to CD3 on the surface of primary T cells and to DLL3 expressing cells (SHP-77) was assessed by flow cytometry. […] These binding assays were conducted by flow cytometry, wherein bound constructs were detected using a fluorophore-conjugated anti-human IgG Fc secondary antibody.

[2] = target: T2, CD3 on the surface of T cells (human, UniProt P07766 23-207); assay: flow cytometry, construct titrated on isolated primary T cells, fluorophore-conjugated anti-human IgG Fc secondary
T2 construct: whole, on cells; multi-chain complex; also called CD3 epsilon
T2 sequence (P07766 23-207): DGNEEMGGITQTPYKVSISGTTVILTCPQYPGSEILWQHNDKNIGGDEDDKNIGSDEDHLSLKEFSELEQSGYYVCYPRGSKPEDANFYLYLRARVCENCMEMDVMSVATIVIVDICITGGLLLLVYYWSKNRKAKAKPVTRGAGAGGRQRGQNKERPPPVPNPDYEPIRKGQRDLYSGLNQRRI
Experimental: as §1

[3] = target: T1, human DLL3 (Delta-like ligand 3); assay: flow cytometry of secreted sdAb-Fc on SHP-77 cells

Binder | binding result [1] | binding result [2] | binding result [3]
B1 | binds | no binding (tested: about 67 nM) | 
B2 |  |  | binds
